Experimental data taken from patent US20190225652A1, “GENERATION OF PEPTIDES” (Hexima Limited, priority 2015, published 2019).

What was measured:
[1] = test system: rOaAEP1b, rOaAEP3, rOaAEP4 and rOaAEP5; test: Cyclization assay with rOaAEP1b, rOaAEP3, rOaAEP4 and rOaAEP5 (MALDI/ESI MS); format: biochemical, Oldenlandia affinis; conditions: 140 μM, no ligation partner, ESI-MS
Description: Linear target peptides (280 μM, unless otherwise indicated) were incubated with rOaAEP1b, rOaAEP3, rOaAEP4 or rOaAEP5 (total protein concentration as indicated in the description of figures) in activity buffer (50 mM sodium acetate, 50 mM NaCl, 1 mM ethylenediaminetetraacetic acid [EDTA], 0.5 μM Tris(2-carboxyethyl)phosphine hydrochloride [TCEP], pH 5). The reaction was allowed to proceed for up to 22 hours at room temperature and was analysed by matrix-assisted laser desorption/ionization mass spectrometry (MALDI MS), high performance liquid chromatography (HPLC) or nuclear magnetic resonance (NMR) as appropriate.
(§1) Cyclization or inter-molecular ligation of linear target peptides was monitored by MALDI or ESI MS. In both cases, the reaction mixture (5-50 μL) was de-salted using C18 zip tips (Millipore) and eluted in 4 μL 50-75% v/v acetonitrile, 0.1% v/v trifluoroacetic acid (TFA).
(§2) For MALDI MS, a saturated MALDI matrix solution (α-cyano-4-hyroxycinnamic acid, CHCA, Bruker) prepared in 95% v/v acetonitrile, 0.1% v/v TFA was diluted 1:22 such that the final matrix solution comprised 90% v/v acetonitrile, 0.1% v/v TFA and 1 mM NH4H2PO4. Eluted samples were mixed 1:4 with the MALDI matrix, spotted onto a MALDI plate and analyzed by an Ultraflex III TOF/TOF (Bruker) in positive reflector mode. Data were analyzed using the flexAnalysis program (Bruker).
(§3) For ESI MS, 96 μl of 75% v/v acetonitrile, 01% v/v TFA was added to the de-salted sample. The sample was then injected into a MicroTOF Q (Bruker) and data was collected in positive ionisation mode. The mass of ligated or cyclized product was determined by charge deconvolution using the Compass DataAnalysis program (Bruker).
The ability of activated AEPs (rOaAEP1b, rOaAEP3, rOaAEP4 and rOaAEP5) to cyclize peptide substrates structurally unrelated to cyclotides was tested in the cyclization assay described in the Materials and Methods. The anti-malarial peptide R1 (Harris et al. (2009) J Biol Chem 284(14):9361-9371; Harris et al. (2005) Infect Immun 73(10):6981-6989); Bac2A, a linear derivative of the bovine peptide bactenecin (Wu and Hancock (1999) Antimicrob Agents Ch 43:1274-1276); and the anti-fungal peptide EcAMP1 (Nolde et al. (2011) J Biol Chem 286(28):25145-25153) were produced with additional AEP recognition residues and used as the substrates.
To investigate the sequence requirements for in vitro cyclization, R1 was used as a model peptide. The recognition residues added to this model peptide were sequentially trimmed to determine the minimal requirements for AEP-mediated cyclization. The N- and C-terminal recognition residues were also substituted with alternate amino acids to determine if particular classes of residues were preferred for cyclization by these recombinant AEPs. The ability of activated AEPs (rOaAEP1b, rOaAEP3, rOaAEP4 and rOaAEP5) to cyclize the R1 peptide with varied flanking sequences was then tested in the cyclization assay described in the Materials and Methods (FIG. 10; Table 3).

[2] = test system: rOaAEP1b, rOaAEP3, rOaAEP4 and rOaAEP5; test: Intermolecular ligation assay with recombinant AEPs; format: biochemical, Oldenlandia affinis; conditions: target 140 μM, ligation partner GLPVSGE or PLPVSGE 700 μM, enzymes 19.7 μg mL^−1, 6-22 h, ESI-MS
Description: Target peptides (140 μM) were incubated with a ligation partner peptide (700 μM) and a recombinant AEP (rOaAEP1b, rOaAEP3, rOaAEP4 or rOaAEP5 at 19.7 μg mL^−1 total protein) in activity buffer (50 mM sodium acetate, 50 mM NaCl, 1 mM EDTA, 0.5 μM TCEP, pH 5). The reaction was allowed to proceed for up to 22 hours at room temperature and was analysed by MALDI MS or electrospray ionisation (ESI) mass spectrometry as appropriate.
as §1, §2, §3
To investigate the ability of recombinantly produced AEPs to perform inter-molecular ligation (as well as the intra-molecular ligation required to produce backbone-cyclized peptides), target peptides were incubated with ligation partner peptides as well as active enzyme (FIG. 11). The appearance of new linear peptides were tracked. […]

[3] = Protease activity against IQF peptides; format: biochemical; conditions: for P2′ substrate specificity (wt vs L31A IQF peptide): 50 μM IQF peptides, 37° C., initial velocity
Description: FIG. 3 is a graphical representation showing expression of active rOaAEP1b in E. coli. (A) Pooled rOaAEP1b-containing anion exchange fractions pre- and post-activation at low pH were diluted 1:14 and tested for activity against the wildtype internally quenched fluorescence (wtIQF) peptide (11 μM) [SEQ ID NO:21]. Baseline fluorescence from a no-substrate control has been subtracted and the relative fluorescence intensity (RFU) at t=90 minutes is reported. A single representative experiment of two technical replicates is shown. (B) Activated rOaAEP1b was captured by cation exchange and the final product analyzed by SDS-PAGE followed by (i) Instant blue staining and (ii) Western blotting with anti-AEP1b polyclonal rabbit serum.
FIGS. 17A and 17B are graphical representations of substrate specificity of plant and human AEPs for wt (SEQ ID NO:21) and L31A (SEQ ID NO:25) IQF peptide substrates. Initial velocity of recombinant O. affinis AEPs (˜10 μg mL^−1 total protein) (17A) and rhuLEG (1.1 μg mL^−1 total protein) (17B) against 50 μM IQF peptide substrates is shown. The assay was conducted at 37° C. The average of two technical replicates are shown and the error bars report the range.
To assay activity of recombinant AEPs (rOaAEP1b, rOaAEP3, rOaAEP4 or rOaAEP5) against both internally-quenched and other fluorescent peptides, substrate and enzyme were diluted as appropriate in activity buffer (50 mM sodium acetate, 50 mM NaCl, 1 mM EDTA, 0.5 μM TCEP, pH 5). […] The change in fluorescence intensity over time was monitored on a SpectraMax M2 (Molecular Devices) using excitation/emission wavelengths of 320/420 nm (IQF peptides) or 360/460 nm (other fluorescent peptides). […]
IQF peptides that incorporate the P1-P4 as well as the P1′-P4′ residues are, however, effectively targeted by recombinant O. affinis AEPs. These peptides contain a fluorescence donor/quencher pair, with fluorescence observed upon the spatial separation of this pair following enzymatic cleavage. […]

[4] = test system: target peptide-linker-ubiquitin-6xHis fusion protein; test: AEP-mediated processing of target peptides fused to ubiquitin; format: biochemical; conditions: kalata B1-ubiquitin 260 μg mL^−1, AEP 19.7 μg mL^−1 total protein, 22 h, SDS-PAGE/anti-6xHis Western blot
[5] = Protease activity against fluorogenic substrate Z-AAN-MCA; format: biochemical; conditions: enzyme ~5 μg mL^−1 total protein, Z-AAN-MCA 100 μM, 37° C., 60 minutes
Description: FIG. 15 is a graphical representation of the activity of recombinant O. affinis AEPs (˜5 μg mL^−1 total protein) and rhuLEG (1 μg mL^−1 total protein) over time against the fluorogenic substrate Z-AAN-MCA (100 μM). Activity is tracked at 1 minute intervals at 37° C. for 60 minutes using excitation and emission wavelengths of 360 and 460 nm respectively. A single representative experiment is shown. RFU, relative fluorescence units.
To assay activity of recombinant AEPs (rOaAEP1b, rOaAEP3, rOaAEP4 or rOaAEP5) against both internally-quenched and other fluorescent peptides, substrate and enzyme were diluted as appropriate in activity buffer (50 mM sodium acetate, 50 mM NaCl, 1 mM EDTA, 0.5 μM TCEP, pH 5). To assay activity of recombinant human legumain (rhuLEG; R&D systems) against the same substrates, the enzyme was first activated by incubation in 50 mM sodium acetate, 100 mM NaCl, pH 4 (4 μL buffer/1 μL enzyme) for 2 hours at 37° C. Substrates and activated rhuLEG were diluted in 50 mM acetate, 0.1% v/v triton X 100, 0.5 μM TCEP pH 5.5 or in 50 mM MES, 250 mM NaCl, pH 5 as required. Diluted enzyme and substrate were added to black, flat bottomed microtiter plates in a total assay volume of 100-200 μL. The change in fluorescence intensity over time was monitored on a SpectraMax M2 (Molecular Devices) using excitation/emission wavelengths of 320/420 nm (IQF peptides) or 360/460 nm (other fluorescent peptides).
AEP activity has traditionally been tracked by monitoring cleavage of the fluorescent substrate Z-AAN-MCA (where Z is carboxybenzyl; MCA is 7-amido-4-methylcoumarin) [Saska et al. (2007) supra; Rotari et al. (2001) Biol. Chem. 382:953-959]. Cleavage C-terminal to the Asn liberates the fluorophore which then fluoresces to report substrate cleavage. […] They are Ac-YVAD-CHO, which is routinely used to identify AEP activity (Hatsugai et al. (2004) Science 305(5685): 855-858) and Ac-STRN-CHO, which represents the P1-P4 residues of the C-terminal kB1 cleavage site. These traditional routes of identifying AEP activity will therefore likely be ineffective for identification of AEPs with cyclizing ability.

Row | Molecule | AEP-mediated backbone cyclization of modified NaD1 [1] | inter-molecular ligation, C-terminal labelling [2] | P2′ substrate specificity (wt vs L31A IQF peptide) [3] | activity against IQF peptide following low pH activation ([3]; wt IQF peptide 11 μM, fractions diluted 1:14, 90 minutes, pre- vs post-activation) | proportion of fusion protein enzymatically processed (loss of precursor) [4] | activity against Z-AAN-MCA [5]
1 | GLP-NaD1-TRNGLP: plant defensin NaD1 with AEP recognition residues at N- and C-termini, expressed in Pichia pastoris (GLPRECKTESNTFPGICITKPPCRKACISEKFTDGHCSKILRRCLCTKPCTRNGLP; Target peptides) | no evidence of backbone-cyclization | new, linear, peptides were detected |  |  |  | 
2 | rOaAEP1b: recombinant Oldenlandia affinis asparaginyl endopeptidase OaAEP1b expressed in E. coli, activated (protein, Oldenlandia affinis OaAEP1b) MVRYLAGAVLLLVVLSVAAAVSGARDGDYLHLPSEVSRFFRPQETNDDHGEDSVGTRWAVLIAGSKGYANYRHQAGVCHAYQILKRGGLKDENIVVFMYDDIAYNESNPRPGVIINSPHGSDVYAGVPKDYTGEEVNAKNFLAAILGNKSAITGGSGKVVDSGPNDHIFIYYTDHGAAGVIGMPSKPYLYADELNDALKKKHASGTYKSLVFYLEACESGSMFEGILPEDLNIYALTSTNTTESSWCYYCPAQENPPPPEYNVCLGDLFSVAWLEDSDVQNSWYETLNQQYHHVDKRISHASHATQYGNLKLGEEGLFVYMGSNPANDNYTSLDGNALTPSSIVVNQRDADLLHLWEKFRKAPEGSARKEVAQTQIFKAMSHRVHIDSSIKLIGKLLFGIEKCTEILNAVRPAGQPLVDDWACLRSLVGTFETHCGSLSEYGMRHTRTIANICNAGISEEQMAEAASQACASIP |  |  | preference for a bulky hydrophobic residue such as Leu at the P2′ position | dramatically increased | the bulk of the precursor was being enzymatically processed | nor rOaAEP1b, rOaAEP3, rOaAEP4 or rOaAEP5 (FIG. 15) had detectable activity
3 | rhuLEG: recombinant human legumain (R&D systems), an AEP that preferentially functions as a hydrolase (protein, UniProt Q99538 18-323, looked up) Legumain: VPIDDPEDGGKHWVVIVAGSNGWYNYRHQADACHAYQIIHRNGIPDEQIVVMMYDDIAYSEDNPTPGIVINRPNGTDVYQGVPKDYTGEDVTPQNFLAVLRGDAEAVKGIGSGKVLKSGPQDHVFIYFTDHGSTGILVFPNEDLHVKDLNETIHYMYKHKMYRKMVFYIEACESGSMMNHLPDNINVYATTAANPRESSYACYYDEKRSTYLGDWYSVNWMEDSDVEDLTKETLHKQYHLVKSHTNTSHVMQYGNKTISTMKVMQFQGMKRKASSPVPLPPVTHLDLTPSPDVPLTIMKRKLMNTN |  |  | not shared |  |  | 
